Read-outs that look alike come from different tables or passages of the source.
Tests used:
Cas13h1 = target: T1, Cas13h1 (UniProt PDB:8WCE_1 1-1111); assay: cryo-EM
T1 sequence: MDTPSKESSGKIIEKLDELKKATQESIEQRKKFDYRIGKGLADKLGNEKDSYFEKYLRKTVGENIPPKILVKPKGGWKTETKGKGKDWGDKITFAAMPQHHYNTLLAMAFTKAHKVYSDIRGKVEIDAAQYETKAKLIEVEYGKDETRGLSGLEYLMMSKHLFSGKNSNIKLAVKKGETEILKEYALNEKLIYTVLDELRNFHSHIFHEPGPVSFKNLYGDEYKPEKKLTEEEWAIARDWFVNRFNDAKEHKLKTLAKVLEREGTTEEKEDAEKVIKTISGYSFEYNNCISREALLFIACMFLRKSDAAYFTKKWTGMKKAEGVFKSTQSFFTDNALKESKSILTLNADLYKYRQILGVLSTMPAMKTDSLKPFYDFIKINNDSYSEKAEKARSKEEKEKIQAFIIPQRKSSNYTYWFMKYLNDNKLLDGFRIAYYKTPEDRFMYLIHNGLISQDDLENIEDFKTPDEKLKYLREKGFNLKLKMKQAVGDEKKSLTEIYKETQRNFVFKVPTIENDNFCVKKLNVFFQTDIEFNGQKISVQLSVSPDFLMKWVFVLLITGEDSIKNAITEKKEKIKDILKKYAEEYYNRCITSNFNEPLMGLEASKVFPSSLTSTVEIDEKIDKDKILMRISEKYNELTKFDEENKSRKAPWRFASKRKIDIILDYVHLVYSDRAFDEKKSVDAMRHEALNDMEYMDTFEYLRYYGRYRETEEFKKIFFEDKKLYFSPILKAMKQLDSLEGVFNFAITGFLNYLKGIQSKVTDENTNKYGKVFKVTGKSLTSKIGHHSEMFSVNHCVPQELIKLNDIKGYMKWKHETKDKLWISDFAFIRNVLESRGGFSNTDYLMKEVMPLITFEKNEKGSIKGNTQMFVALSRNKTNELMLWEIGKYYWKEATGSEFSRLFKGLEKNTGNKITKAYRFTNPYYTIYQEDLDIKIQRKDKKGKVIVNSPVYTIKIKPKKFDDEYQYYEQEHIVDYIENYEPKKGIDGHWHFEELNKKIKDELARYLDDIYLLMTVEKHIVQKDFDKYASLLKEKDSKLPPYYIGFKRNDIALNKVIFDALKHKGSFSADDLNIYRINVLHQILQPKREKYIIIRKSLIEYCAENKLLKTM

[1] = target: T2, Cas13h1 R200A (catalytically dead) (UniProt PDB:8WCE_1 1-1111, R200A); assay: cryo-EM
T2 sequence: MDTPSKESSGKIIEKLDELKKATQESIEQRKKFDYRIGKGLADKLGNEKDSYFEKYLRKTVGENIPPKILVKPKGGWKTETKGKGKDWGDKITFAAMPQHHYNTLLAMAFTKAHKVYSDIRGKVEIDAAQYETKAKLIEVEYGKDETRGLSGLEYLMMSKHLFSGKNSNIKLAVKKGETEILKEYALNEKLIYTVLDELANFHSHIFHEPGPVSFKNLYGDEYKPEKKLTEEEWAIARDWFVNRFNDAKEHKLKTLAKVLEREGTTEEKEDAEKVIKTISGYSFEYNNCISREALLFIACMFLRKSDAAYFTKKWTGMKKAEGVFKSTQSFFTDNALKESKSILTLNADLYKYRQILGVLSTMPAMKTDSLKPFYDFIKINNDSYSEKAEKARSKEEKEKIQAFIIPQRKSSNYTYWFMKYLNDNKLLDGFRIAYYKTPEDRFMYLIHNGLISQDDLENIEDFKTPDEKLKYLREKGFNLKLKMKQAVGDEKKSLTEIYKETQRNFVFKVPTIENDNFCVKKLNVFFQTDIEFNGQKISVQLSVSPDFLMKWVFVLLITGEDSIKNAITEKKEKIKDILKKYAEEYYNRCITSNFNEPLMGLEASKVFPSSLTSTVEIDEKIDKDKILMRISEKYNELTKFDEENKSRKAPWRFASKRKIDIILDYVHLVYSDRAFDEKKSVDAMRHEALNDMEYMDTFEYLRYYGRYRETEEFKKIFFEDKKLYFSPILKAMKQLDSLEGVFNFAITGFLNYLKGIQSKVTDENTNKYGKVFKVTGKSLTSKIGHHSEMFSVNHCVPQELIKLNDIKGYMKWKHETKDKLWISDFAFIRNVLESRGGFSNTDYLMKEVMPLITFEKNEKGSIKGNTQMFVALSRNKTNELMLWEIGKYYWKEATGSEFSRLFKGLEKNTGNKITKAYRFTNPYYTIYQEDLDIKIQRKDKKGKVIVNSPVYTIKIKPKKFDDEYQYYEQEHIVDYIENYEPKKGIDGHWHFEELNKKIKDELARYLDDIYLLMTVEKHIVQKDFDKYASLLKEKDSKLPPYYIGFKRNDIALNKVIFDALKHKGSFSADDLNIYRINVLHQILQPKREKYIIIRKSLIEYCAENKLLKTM

Cas13h1 Middle = target: T3, Cas13h1 Middle (UniProt PDB:8WCE_1 340-930); assay: size exclusion chromatography
T3 sequence: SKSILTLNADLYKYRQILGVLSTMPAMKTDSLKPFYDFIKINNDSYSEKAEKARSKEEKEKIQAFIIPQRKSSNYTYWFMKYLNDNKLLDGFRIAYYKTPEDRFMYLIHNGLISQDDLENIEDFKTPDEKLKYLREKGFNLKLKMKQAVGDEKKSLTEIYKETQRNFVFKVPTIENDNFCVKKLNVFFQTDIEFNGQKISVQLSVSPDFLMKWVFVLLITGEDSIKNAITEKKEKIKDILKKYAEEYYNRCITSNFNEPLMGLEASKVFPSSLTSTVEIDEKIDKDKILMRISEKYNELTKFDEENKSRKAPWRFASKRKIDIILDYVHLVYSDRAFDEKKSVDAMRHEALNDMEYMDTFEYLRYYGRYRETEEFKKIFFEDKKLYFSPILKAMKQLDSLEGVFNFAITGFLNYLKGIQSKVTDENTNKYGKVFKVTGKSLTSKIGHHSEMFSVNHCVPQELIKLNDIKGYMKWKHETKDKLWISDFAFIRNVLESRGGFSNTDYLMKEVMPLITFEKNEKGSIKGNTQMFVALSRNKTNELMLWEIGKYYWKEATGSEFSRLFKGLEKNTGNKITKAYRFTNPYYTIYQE

[2] = target: T2, Cas13h1 R200A (catalytically dead); assay: cryo-EM; remark: listed apart in the source

B1: crRNA (30-nt guide, 36-nt repeat) (structured_RNA)
RNA: UGCUUCACGUAGGCCUUGGAGCCGUACAUGGUUGUAACAAGCCUAAGUUUGAAAGGUAAAAACAAC
Does B1 bind (Cas13h1)?
Result: binds

B2: crRNA / target RNA3 (5'-U) (structured_RNA)
RNA 1: UGCUUCACGUAGGCCUUGGAGCCGUACAUGGUUGUAACAAGCCUAAGUUUGAAAGGUAAAAACAAC
RNA 2: UCAUGUACGGCUCCAAGGCCUACGUGAAGCA
Does B2 bind [1]?
Result: binds

B3: crRNA / target RNA1 (5'-G) (structured_RNA)
RNA 1: UGCUUCACGUAGGCCUUGGAGCCGUACAUGGUUGUAACAAGCCUAAGUUUGAAAGGUAAAAACAAC
RNA 2: GCAUGUACGGCUCCAAGGCCUACGUGAAGCA
Does B3 bind (Cas13h1 Middle)?
Result: binds

Does B3 bind [2]?
Result: binds

— publication PMC11229369
